According to the nanobody polyreactivity screen of Harvey et al. (2022):

Assay: yeast display, Sf9 membrane polyspecificity reagent, FACS + sequencing; frameworks hold sequencing errors
How it was run: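 Using colony PCR, genes from sorted yeast display clones were amplified, then sequenced on MiSeq at 2 × 250 and filtered by CDR length. The clones had been stained with 10% biotinylated, detergent-solubilized Sf9 membrane reagent for 1 hour at 4 °C and sorted by FACS into low and high (top ~1%) gates on anti-HA and streptavidin fluorescence. Polyreactivity labels come from the gate of origin.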

For “QVQLVESGGGLVQAGGSLRLSCAASGSTMRFYAMGWYRQAPGKERELVAAISSSGSSTYYADSVKGRFTISRDNAKNTVYLQMNSLKPEDTAVYYCSGYGYWGQGTQLTVSS”, the “polyreactivity (PSR sort gate)” value was “high polyreactivity”.

With “QVQLVESGGGLVQAGGSLRLSCAASGSTFRPYVMGWSRQAPGKERELVAAISWRGGTTYYADSVKGRFTISRDNAKNTVYLQMNSQKPEDPAVYYCAARGDQGVPVARRYDYWGQGTQVTVSS” the “polyreactivity (PSR sort gate)” value was “high polyreactivity”.

In the case of “QVQLVESGGGLVQAGGSLRLSCAASGLTFRYYTMGWYRQAPGKERELVASINIRGGSTYYADSVKGRFTISRDNAKNTVYLQMNSLKAEDTSVYYCNNRYGFSFGYWGQGTQVTVSS”, the “polyreactivity (PSR sort gate)” value is reported as “high polyreactivity”.

In the case of “QVQLVESGGGLVQAGGSLRLSCAASGRISVFNAMGWYRQAPGKERELVAAITSGGSTNYADSVKGRFTISRDNAKNTVYLQMNSLKPEDTAVYYCNADVYHSHEPHYDYWGQGTQVTVSS”, the “polyreactivity (PSR sort gate)” value is reported as “low polyreactivity”.

With “QVQLVESGGGLLQAGGSLRLSCAASGSIFGGNAMGWYRQAPGKEREFVAAITVSDGSTYYADSVKGRFTISRDNAKNTVYLQMNSLKPEDTAVYYCAAGGFYYPHYDYWGQGSQVTVSS” the “polyreactivity (PSR sort gate)” value was “low polyreactivity”.

With “QVQLVESGGGLDQAGGSLRLSCAASGSTFVWNAMGWYRHAPGKERELVAAISSSGGSTYYADSVKGRFTISRDNAKNTVYLQMNSLKPEDTAVYYCAKGYYVRMDWGQGTQVTVSS” the “polyreactivity (PSR sort gate)” value was “high polyreactivity”.

In the case of “QVQLVESVGGLVEAGRILRLSCAATGSTFPYNDLGWYRQAPGKQRELVADISGDSGSTYYADSVKGRFTISRDNAKNTVYLQMKSLKPEDTAVYYCAAEGLHYAGDYGTGYDNWGQGTQLTVSS”, the “polyreactivity (PSR sort gate)” value is reported as “low polyreactivity”.

In the case of “QVQLVESCGGLVQAGGSLRLSCAASGRIFSYNPMGWYRQAPGKERELVATITSGDSTNYADSVKGRFTISRDNSKNSVYLQMNSLKQEDTAVYYCATDIYGLPVDYWGQGTQVSVSS”, the “polyreactivity (PSR sort gate)” value is reported as “low polyreactivity”.

With “QVQLVESGAGLVQAGGSLRLSCAASGRIFVYNTMGWYRQAPGKEREFVAAITRSGGSTTYADSVKGRFTISRANAKNTVYLQRNSLKPEDTAVYYCAAGPFISYWVSRFGYWGQGTQVTVSS” the “polyreactivity (PSR sort gate)” value was “high polyreactivity”.

With “QVQLVESGGGLVQAGGSLRLSCAASGITFSKYAMGWYRQAPGKERELVASITWSGTSTYYADSVKGRFTISRDNAKNTVYLQMNSLKPEDTAVYYCAAEGWGTFWRPPNGYGYEHDYWGQGTQVTVSS” the “polyreactivity (PSR sort gate)” value was “low polyreactivity”.

For “QVQLVESGGGLVQAGGSLRLSCAASGRTFPWYAMGWYRQAPGKERELVAAITYSVGSTYYADSVKGRFTISRDNAKNTVYLQMNSLKPEDTAVYYCAADSYPYRYRGKYSRLDYWGQGTQVTVSS”, the “polyreactivity (PSR sort gate)” value was “low polyreactivity”.

For “QVQLVESGGGLVQAGGSLRLSGAASGSSFLRNAMGWSRQAPGKERELVATISTGSGRTYYADSVKGRFTISRDNAKNTVYLQMTSLKPEDTAVYYCAASRTLRKHRYEYWGQGTKVTVSS”, the “polyreactivity (PSR sort gate)” value was “high polyreactivity”.

In the case of “QVQLVESGGGLVQAGGSLRLTCAASGRTFGDNAMGWYRQAPWKERELVAAITSGASTYYADAVKGRFTISRDNAMNTVYLQMNSLKPEDTAVYYCADDQGDWNGYGFDYWGQGTQVTVSS”, the “polyreactivity (PSR sort gate)” value is reported as “low polyreactivity”.

In the case of “QVQLVESGGGLVQAGGSLRLSCAASGIIFTGYAMGWYRQAPGKERELVAAISGSGGRTYYSDSVKGRFTISRDNAKNTVYLQMNSLKPEDTAVYYCAAYRVSDYDYWGQGTQVTVSS”, the “polyreactivity (PSR sort gate)” value is reported as “high polyreactivity”.

For “QVQLVESGGGLLQAGGSLRLSCAASGITLSYYVMGWYRQAPGKERELVAAINQSGSRTYYADSVKGRFTISRDNPKNSVYLQMNSLKPEDTAVYYCAGVFSYQPTSGYGYWGQGTQVTVSS”, the “polyreactivity (PSR sort gate)” value was “high polyreactivity”.

For “QVQLVESGGGLVQAGGSLRLSFAASGRTFGYYAMGWYRHAPGKERELVAAITRNGGRTYYADSVKGRFTISSDNAKNTFYLQMNSLKPEDTAVYYCAKDQYKPEAFYYWGQGTQVTVSS”, the “polyreactivity (PSR sort gate)” value was “high polyreactivity”.

In the case of “QVQLVESGGGLVQAGGILRLSCAASGFTFYRNAMGWYRQAPGKERELVAAISIRSGRTYYADSLKGRFTISRDNAKNSVYLQMNSLKPEDTAVYYCNKVRLPRDPYNYWGQGTQVTVSS”, the “polyreactivity (PSR sort gate)” value is reported as “high polyreactivity”.

With “QVQLVESGGGLVQAGGSLRLTCAASGIIFDTNAMGWYRQAPGKERELVATITQRGGTTYYADSVKGRFTISRDNAKNTVYLQMNSLKPEDTAVYYCNAGPVRLPYDSWGQGTQVTVSS” the “polyreactivity (PSR sort gate)” value was “low polyreactivity”.

For “QVQLEESGGCLVQAGGSLRLSCAASGFTFRGYAMGWYSQAPGKERELVAAISKRGGSTYYADSVKGRFTISRDNAKNTVYLLMNSLKPADTAVYYCNADYYIVGPPYSPTREDYWGQGTQVTVSS”, the “polyreactivity (PSR sort gate)” value was “high polyreactivity”.

In the case of “QVQLVESGGGLVQEGGSLRLSCAAYGRIFAPYSMGWYRQAPGKERELVAAITSGGSTNYADSVKGRFTISRDNAKNTVYLQMNSLKPEDTSVYYCASEASYNYVKYVVTYVYWGQGTQVTVSS”, the “polyreactivity (PSR sort gate)” value is reported as “high polyreactivity”.

In the case of “QVQLVESGGGLVQAGGSLRLSCAASGNNFSYNAMGWYRQAPGKERELVAAITTSSGRTYYADSVKGRFTISRDNAKNTVYLQMNSLKPEDTAVYFCNAVQRYQIGYWGQGTQVTVSS”, the “polyreactivity (PSR sort gate)” value is reported as “high polyreactivity”.

In the case of “QGQLVESGGGLVQAGGSLRLSCAASGSIFSKNALGWYRQAPGRERELVAAITSGASTNYADSVKGRFTISRDNAKNTVYLQMNSLKPEDTAGYYCAAKRNGFWYGYWGQGTQVTVSS”, the “polyreactivity (PSR sort gate)” value is reported as “low polyreactivity”.

For “QVQLVESGGGLVQAGGSLRLSCAASGIIFVVNDMGWYRQAPGKERELVADISDSGGSTNYADSVKGRFTISRDNAKNTVYLQMNSLKPEDTAVYYCNADGITSLPVPALDYWGQGTQVTVSS”, the “polyreactivity (PSR sort gate)” value was “low polyreactivity”.

With “QVQLVESGGGLVQAGGSLRLSCAASGRTFGVNAMGWYRQAPGKERELVAAIDSSGGSTYYADSVKGRFTISRDNAKNTVYLQMNSLKPEDTAVYYCAGPYRPDYDYWGQGTQVTVSS” the “polyreactivity (PSR sort gate)” value was “high polyreactivity”.

For “QVQLVESGGGLVQAGGSLRLSCAASGITFPYYAMGWYRQAPGKERELVAAISAGGTRTYYADSVKGRFTISRDNAKNTVYLQMNSLKPEDTAVYYCAARVWPIVQNYYWGQGTQVTVSS”, the “polyreactivity (PSR sort gate)” value was “high polyreactivity”.

With “QVQLVESGGGLVQAGGSLRLSCAASGITFGKNAMGWYRQAPGKERELVATIRRSGGSTYADSVKGRFTISRDNAKNTVYLQMNSLKPEDTAVYYCNARSWNTYNYWGQGTQVTVSS” the “polyreactivity (PSR sort gate)” value was “high polyreactivity”.

In the case of “QVQLVESGGGLVQAGGRLRLSCAASGFIFPHYAMGWYRQAPGKDRELVAAITWSGSSTYYADSVKGRFTISRDNAKNTVYLQMNSLKPEDTAVYYCYADYRLWPTSRYRYGYWGQGTQVTVTS”, the “polyreactivity (PSR sort gate)” value is reported as “high polyreactivity”.

For “QVQHVESGGGLVQAGGSLRLSCAASGRIFHYYAMGWYRQAPGKERELVAAITFRGGNTYADSVKGRFTISRDNAKNTVYLQMNSLKPEDTAFYYCADSRLSGYYSRYGYWGQGTQVTVSS”, the “polyreactivity (PSR sort gate)” value was “high polyreactivity”.

For “QVQLVESGGGLVQAGGSLRLSCAASGINFRLNAMGWYRQAPGKERELVAAIRRRGGSTYYADSVKGRFTISRDNAKNTVYLQMNSLIPEDTAVYYCAKDPHGSDFGYWGQGNQVTVSS”, the “polyreactivity (PSR sort gate)” value was “low polyreactivity”.

With “QVQLVETGGGLVHAGGSLRLSCAASGFIFTEYAMGWYRQAPGKEMELVAAISRSDDATHYADSVKGRFTISRDNAKNTVSLQMNSLKTEDTAVYNCTVAPEGYSLVDTSPYYYWGQGTQVTVSS” the “polyreactivity (PSR sort gate)” value was “low polyreactivity”.

For “QVQLVESGGALVQAGCSLSLSCAASGRIFSHNAMGWYRQAPGKERELVAGISSGGGTTYADSVKGRFTISRDNAKNNVYLQMNSLKPEDTAVYYCNKQDQPVGRSGYPYGYDYWGQGTQVTVSS”, the “polyreactivity (PSR sort gate)” value was “low polyreactivity”.

In the case of “QVQLVESGGGLVQAGGSLRFSCDASGRTFRYYAMGWYRQAPGKERELVAAIRSGGTTYYADSVKGRFTISRDNAKNTVYFQMNSLKPEDTAVYYCAAKVPWKYSRVYRVGFDYWGQGTQVTVSS”, the “polyreactivity (PSR sort gate)” value is reported as “high polyreactivity”.

With “QVQLVESGGGLVQAGGSLRLSCAASGFIIVRYAMGWYRQAPGKERELVAAITRSGGSTYYADSVKGRFTISRDNAKNTVYLQMNSLKPEDTAVYYCNAYRQGFTYARMDYWGQGTQVTVSS” the “polyreactivity (PSR sort gate)” value was “high polyreactivity”.

For “QVQLVESGGGLVQAGGSLRLSCAASRLTFAGNAMGWYRQAPGKEREFVATITWSDGSTRYADSVKGRFTISRDNAKNSVYLQMNSLKPEDTAVSYCNTQYPDYFYEFNYWGQGTQVTVSW”, the “polyreactivity (PSR sort gate)” value was “low polyreactivity”.

In the case of “QVQHVESGAGLVQAGGSLRLSCAASGNTINFYAMGWYRQPPGKESELVASITSGGGTNYADSVKGRFTISRDNAKNTVYLQMNSLKPEDTAVYYCAAQFYDHFRYHFDWGQGTQVTVSS”, the “polyreactivity (PSR sort gate)” value is reported as “low polyreactivity”.

In the case of “QVQLQESGGGLVQVGGSQRLSCAASGNIFYNYAMGRYRHAQGKEHEFDATINHGTSINYADSVKGRFTISRDNAKNTVYLQMNSLKPEDTAVYYCAADLSWTDNLFYWGQGTQVTVSS”, the “polyreactivity (PSR sort gate)” value is reported as “low polyreactivity”.

In the case of “QVQLVESGGGLVQAGGSLRLSCAASGIIFKRYAMGWYRQAPGKDRELVAAISSRAGRTYYADSVKGRFTISRDNAKNNVYLQLNSLKPEDTAVYYCNTGLVYGYDYWGQGTQVTVSS”, the “polyreactivity (PSR sort gate)” value is reported as “high polyreactivity”.

In the case of “QVQLVESGGGLVQAGGSLRLSCAASGSILYTYAMGWYRQAPGKERELVASISSNAGSTYYADSVKGRFTISRDNAKNTVYLQMNSLKPEDTAVYYCNKVYGGGTYDYWGQGTQVTVSS”, the “polyreactivity (PSR sort gate)” value is reported as “low polyreactivity”.

In the case of “QVQLVESGGGLVQAGGSLRLSCAASGRIFYLYAMGWYRQAPGKERELVATINTSGGITYYADSVKGRFTISRDNAKNTVYLQMNSLKPEDTAVYYCNADWEWLYFYFRPGGYWGQGTQVTVSS”, the “polyreactivity (PSR sort gate)” value is reported as “low polyreactivity”.

With “QVKLVESGGGLVQAGGSLRLSCADSGSIFQRYAMGWYSQKPGKAREFVAAISGRGGSTYYADSVKGRFTISRDNAKNTVYLQMNSLKPEDTAVYYCAADSSRFYGRPRYYYWGQGTQVTVSS” the “polyreactivity (PSR sort gate)” value was “high polyreactivity”.

With “QVQLVESGGGLVQAGGSLRLSCAASGRTSDGYAMGWYRQAPGKERELVAGITEGGGDTYYADSVKGRFTISRDNAKNTVYLQMNSLKPEDSAVYYCNAVEGSRLPYDYWGQGTQVTVSS” the “polyreactivity (PSR sort gate)” value was “low polyreactivity”.

In the case of “QVQLVESGGGLVQAGGSLRLSCAASGSTIYPYAMGWYRQAPGKERELVAAISSGGRTYYADSEKGRFTISRDKAKNTVYLQMNSLKPEDPAVYYCAARVTKKYRRTYDYWGQGTQVTVSS”, the “polyreactivity (PSR sort gate)” value is reported as “high polyreactivity”.

For “QVQLVESGGGLEQAGGSLRLTWAASGRIFYVYAMGLYIQAPGKERELVAAITWRGGTTYYADSVKGRFTISRDNAQNTVYLEMNSLKPEDTAVYYCNAKYFRSYYSIEYDYWGQGTQVTVSS”, the “polyreactivity (PSR sort gate)” value was “low polyreactivity”.
